In doi:10.1101/2023.01.06.522972 (bioRxiv, 2023):

B1: Leishmania major profilin, wild type (natural protein)
chain: SWQAYVDDSLIGSGNMHSAAIIGAADGSYWAYGGSYVPQPEEVQHIQKCLSDFSFVQSSGVNIYGVKFFGLQCGTDGDCKYIFFKKGAAGGCIYTTKQAFIVAVYGNPGDTSSLQQDLEKNTAHAVTVNPADCNTTVKRIADYLIKLGY
notes: also called LmProfilin; LmProf-WT
B2: poly-L-proline decamer peptide (peptide)
peptide: PPPPPPPPPP
notes: also called poly-L-proline peptide; poly-proline decamer

Columns and labels:
Conditions in all cases: both partners purified
Leishmania major actin [1] = biological target: T1, Leishmania major actin (Leishmania major, UniProt P45520 2-376); test: ITC
T1 construct: also called LmActin; Leishmania actin
T1 sequence (P45520 2-376): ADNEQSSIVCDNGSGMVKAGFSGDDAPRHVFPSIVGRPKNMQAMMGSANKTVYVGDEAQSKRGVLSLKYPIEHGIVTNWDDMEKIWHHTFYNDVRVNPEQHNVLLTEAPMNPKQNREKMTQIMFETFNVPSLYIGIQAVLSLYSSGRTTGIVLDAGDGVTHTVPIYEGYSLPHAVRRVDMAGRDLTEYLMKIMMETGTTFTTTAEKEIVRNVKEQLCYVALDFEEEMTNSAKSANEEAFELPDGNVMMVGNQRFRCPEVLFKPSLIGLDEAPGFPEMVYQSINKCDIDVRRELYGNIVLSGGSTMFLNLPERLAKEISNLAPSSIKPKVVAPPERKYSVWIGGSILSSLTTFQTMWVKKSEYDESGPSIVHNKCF

Leishmania major actin [2] = biological target: T1, Leishmania major actin; test: crystal structure
[3] = biological target: B1; test: other fluorescence titration

Binder	Kd (Leishmania major actin [1]) [nM]	stoichiometry N (Leishmania major actin [2])	Kd [3] [µM]
B1	~80	1	–
B2	–	–	242 ± 38.4
